Measurements reported in patent publication US20240424125A1 (Zymeworks, published 2024).

How the values were obtained:
[1] = biological target: T1, cynomolgus monkey FRα on cells (cynomolgus monkey, UniProt P15328 29-234 (human entry)); test: apparent Kd, flow cytometry, CHO-S cells transiently expressing cynomolgus monkey FRα, 24 h at 4°C
T1 construct: Transiently expressed on CHO-S cells; also called Cyno FRα; cynomolgus FRα
Procedure: (§1) Briefly, CHO-S cells were transfected for −24 hours to transiently express human or cynomolgus monkey FRα, 1 ug DNA per 1 million cells. Following transfection, cells were seeded at 50,000 cells/well in V-bottom 96-well plates and treated with antibody for 24 hours at 4° C. to prevent internalization. […] Following incubation and washing, fluorescence was detected by flow cytometry on a BD LSRFortessa™ Cell Analyzer (BD Biosciences, Franklin Lake, NJ).

human FRα on cells = biological target: T2, human FRα on cells (human, UniProt P15328 25-234); test: apparent Kd, flow cytometry, CHO-S cells transiently expressing human FRα, 24 h at 4°C
T2 construct: Transiently expressed on HEK293-6e, CHO-S or HEK293 microarray cells, or endogenous on JEG-3, HEC-1-A, IGROV-1, OVCAR-3, H2110, KB-HeLa and T-47D cells; also called human folate receptor alpha; FOLR1
T2 sequence (P15328 25-234 limits assumed): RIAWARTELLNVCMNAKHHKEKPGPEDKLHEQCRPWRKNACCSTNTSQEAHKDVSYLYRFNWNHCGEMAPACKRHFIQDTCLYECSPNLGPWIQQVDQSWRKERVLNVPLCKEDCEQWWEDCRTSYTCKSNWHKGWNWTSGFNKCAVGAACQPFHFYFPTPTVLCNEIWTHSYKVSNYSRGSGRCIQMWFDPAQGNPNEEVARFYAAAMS
Procedure: as §1

[2] = biological target: T3, recombinant His-tagged human FRα (ACROBiosystems) (human, UniProt P15328 25-233); test: SPR (Biacore T200): hFRα amine-coupled to CM5 chip at medium antigen density, bivalent FSA injected, 1:1 Langmuir fit, mean of n=2
T3 construct: also called hFRα; hFRα antigen; not shown: His tag
T3 sequence (P15328 25-233 limits assumed): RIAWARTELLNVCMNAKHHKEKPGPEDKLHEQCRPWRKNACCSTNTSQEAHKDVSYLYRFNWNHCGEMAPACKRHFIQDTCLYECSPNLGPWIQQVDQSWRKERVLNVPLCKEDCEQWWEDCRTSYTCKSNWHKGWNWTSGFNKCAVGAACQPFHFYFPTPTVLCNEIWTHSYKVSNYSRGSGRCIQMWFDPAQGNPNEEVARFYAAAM
Procedure: CM5 Series S sensor chip, Biacore™ amine coupling kit (NHS, EDC and 1 M ethanolamine), and 10 mM sodium acetate buffers were purchased from GE Healthcare Life Science (Mississauga, ON, Canada). PBS running buffer with 0.05% Tween20 (PBST) was purchased from Teknova Inc. (Hollister, CA). Recombinant human FRα was purchased from ACRObiosystems (Newark, DE).
Screening of the variants for binding to hFRα antigen was conducted in two steps: capture of hFRα onto surface, followed by injection of three to five concentrations of variant. The hFRα surface was prepared on a CM5 Series S sensor chip by standard amine coupling methods as described by the manufacturer (GE Healthcare Life Science, Mississauga, ON, Canada). The immobilization of the hFRα was performed using Biacore™ T200 immobilization wizard with an amine coupling method aiming for resonance units (RUs) ranging from 5 to 200 RUs. Using multi-cycle kinetics, three to five concentrations of a two-fold dilution series of samples starting at 300 nM with a blank buffer control were injected at 50 uL/min for 180s with a 600s dissociation phase, resulting in a set of sensorgrams with a buffer blank reference. The hFRα surface was regenerated to prepare for the next injection cycle by one pulse of 10 mM glycine/HCl pH 1.5 for 30s at 30 uL/min. Blank-subtracted sensorgrams were analyzed using Biacore™ T200 Evaluation Software v3.0. The blank-subtracted sensorgrams were then fit to the 1:1 Langmuir binding model.

[3] = biological target: T4, FOLR3, commercial purified protein (R&D Systems Cat. No. 5319-FR) (human, UniProt P41439 23-245, limits assumed); test: ELISA on coated FOLR3 protein
T4 construct: Coated on the ELISA plate; also called folate receptor gamma (FOLR3)
T4 sequence (P41439 23-245 limits assumed): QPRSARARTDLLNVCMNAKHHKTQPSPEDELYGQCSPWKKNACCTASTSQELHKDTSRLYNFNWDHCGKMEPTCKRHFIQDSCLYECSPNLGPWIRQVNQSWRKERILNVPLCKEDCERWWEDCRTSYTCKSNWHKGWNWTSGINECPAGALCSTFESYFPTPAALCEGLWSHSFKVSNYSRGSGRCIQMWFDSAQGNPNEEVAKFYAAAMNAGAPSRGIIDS
Procedure: FOLR3 binding: ELISA 96-well plate was coated with commercial purified FOLR3 protein (R&D Systems, Inc., Minneapolis, MN; Cat. No. 5319-FR) for 1 hr at 37° C. The plate was blocked with 1% milk in PBS pH 7.4 for 1 hr at RT. Following blocking, primary antibodies were added at 7 nM for 1 hr at RT. […] Plates were developed using tetramethylbenzidine (TMB) and HCl was used to stop reaction. Absorbance was read at 450 nm using a Synergy™ H1 microplate reader (BioTek Instruments, Winooski, VT).

[4] = biological target: T3, recombinant His-tagged human FRα …; test: BLI (Octet RED96): antibody loaded on anti-human IgG Fc capture biosensors, His-tagged hFRα in solution. Six traces with fit lines plateau between about 0.17 and 0.5 nm during 0-400 s association and decay almost to baseline by 900 s. The legend prints the same globally fitted KD for all six traces (single run; the text prints only the mean of n=2).
Procedure: The assay buffer used was KB buffer (kinetics buffer, composed of PBS pH 7.4, 0.1% BSA, 0.02% Tween 20, 0.05% sodium azide) supplemented with 0.06% Tween 20 and in some instances also with 1% BSA. The experiment was conducted at 30° C. with a shake speed of 1000 rpm.
Data analysis was performed using Data Analysis Software 9.0 (ForteBio, Fremont CA). The reference-subtracted binding curves were globally fitted to the 1:1 interaction model to generate the binding kinetic parameters kₒₙ, koff, and the dissociation constant KD.

FOLR2 on HEK293-6e cells = biological target: T5, FOLR2 on HEK293-6e cells (human, UniProt P14207 17-230); test: flow cytometry on transfected HEK293-6e cells
T5 construct: whole, on cells; also called human folate receptor beta (FOLR2)
T5 sequence (P14207 17-230): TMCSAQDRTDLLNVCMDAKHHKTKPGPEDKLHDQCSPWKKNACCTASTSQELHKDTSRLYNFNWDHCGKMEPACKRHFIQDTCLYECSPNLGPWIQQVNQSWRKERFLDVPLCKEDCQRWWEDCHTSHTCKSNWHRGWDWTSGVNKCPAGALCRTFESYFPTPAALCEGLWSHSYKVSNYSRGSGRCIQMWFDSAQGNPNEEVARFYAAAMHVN
Procedure: (§2) FRα, FOLR2 and FOLR4 binding was assessed through flow cytometry using HEK293 transfected cells. FOLR3 binding was assessed through ELISA as FOLR3 is a soluble protein. Control anti-FOLR2 (mouse anti-human FOLR2; Nordic BioSite AB, Taby, Sweden; Cat. No. AFC-4544-2), anti-FOLR3 (mouse anti-human FOLR3; LS Bio, Seattle, WA; Cat. No. LS-C125621) and anti-FOLR4 (mouse anti-His DyLight™ 650; Novus Biologicals, Littleton, CO; Cat. No. NBP2-31055C) antibodies were included in these experiments.
(§3) FRα, FOLR2 and FOLR4 binding: Briefly, HEK293-6e cells were transfected for ˜24 hours to transiently express human FRα (Cat. No. 13420), FOLR2 (Cat. No. 13481) and FOLR4 (Cat. No. 13483) (all from GenScript Biotech, Piscataway, NJ), 1 ug DNA per 1 million cells. Following transfection, 50,000 cells were seeded in V-bottom 96-well plates and incubated with 50 nM primary antibody for 45 min under standard culturing conditions. […] Following incubation and washing, fluorescence was detected by flow cytometry on a BD LSRFortessa™ Cell Analyzer (BD Biosciences, Franklin Lake, NJ) with 1,000 minimum events collected per well.

FOLR4 on HEK293-6e cells = biological target: T6, FOLR4 on HEK293-6e cells (human, UniProt A6ND01 20-228); test: flow cytometry on transfected HEK293-6e cells
T6 construct: whole, on cells; also called human folate receptor delta (FOLR4)
T6 sequence (A6ND01 20-228): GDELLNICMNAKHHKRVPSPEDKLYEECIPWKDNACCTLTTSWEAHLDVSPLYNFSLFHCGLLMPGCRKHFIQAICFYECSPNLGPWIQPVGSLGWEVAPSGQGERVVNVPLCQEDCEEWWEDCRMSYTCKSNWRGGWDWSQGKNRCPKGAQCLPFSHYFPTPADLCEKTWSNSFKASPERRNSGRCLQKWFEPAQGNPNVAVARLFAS
Procedure: as §2, §3

[5] = biological target: T1, cynomolgus monkey FRα on cells; test: apparent Kd, flow cytometry, CHO-S cells transiently expressing cynomolgus monkey FRα (same experiment as Table 15.1, more digits)
Procedure: as §1

T1 sequence (P15328 other isoform, or with tags, fused parts or gaps limits assumed): as the sequence (P15328 25-234 limits assumed) above, with I2T, A3T, W4R, R37K, A146P, H171Y counted along it

B1: v23924 (antibody, human IgG1, kappa, V domains shown)
VH: QSVKESEGGLFKPTDTLTLTCTVSGFSLSSYGVSWVRQAPGNGLEWIGAVNSGGSAYYANWAKSRSTITRNTNLFTVTLKMTSLAVADTATYFCARSGSGYPMDYLAIWGPGTLVTVSS
VL: AYDMTQTPASVEVAVGGTVTIKCQASQSIGDWLAWYQQKPGQPPRLLIYEASTLASGVPSRFSGSGSGTQFTLTISGVECADAATYYCQQGYGRSNVDNIFGGGTEVVVKR
notes: Rabbit-human chimeric full-size antibody, human IgG1/kappa, HomoFc; also called variant v23924; parental chimeric anti-FRα antibody
Kd [1]: 0.12 nM
Kd (human FRα on cells): 0.08 nM
Kd [2]: 1.37 nM
binding result [3]: no binding (tested: 7 nM)
Kd [4]: 20.6 nM
binding result (FOLR2 on HEK293-6e cells): no binding (tested: 50 nM)
binding result (FOLR4 on HEK293-6e cells): no binding (tested: 50 nM)
Kd [5]: 0.122 nM
